Consider 7 molecules from US20140287419A1, “Compositions Having Dicamba Decarboxylase Activity and Methods of Use” (priority 2013, published 2014).

Residue numbers refer to the chain shown, from its start. In names and notes the source's numbering stands.

B1: SEQ ID NO:118: Design variant of SEQ ID NO: 95 (protein)
chain: MAKKPRIDMHSHFFPRISEQEAAKFDANHAPWLQVSAKGDTGSIMMGKNNFQPVYQALWDPAFRIEEMDAQGVDVQVTCATPVMFGYTWEANKAAQWAERMNDFALEFAAHNPQRIKVLAQVPLQDLDLACKEASRAVAAGHLGIQIGNHLGDKDLDDATLEAFLTHCANEDIPILVHGTDMMGGQRMKKWGLPWLVALAAEVQLAILSLILSGAFERIPKSLKICFSHGGGSFAFLLGLVDEAWRHVDIVREDCPRPPSEYVDRFFVDSVGNPGALELLVSVMGEDRVMLGSDYPHTTGEQKIGGLVLSSNLGESAKDKIISGNASKFFNINV
modifications: Dicamba decarboxylase variant clone DC.5.033
B2: SEQ ID NO:119: Design variant of SEQ ID NO: 95 (protein)
chain: B1 chain with T180W, P194Y, L199H, A200H, L237T, L240W, H297L
modifications: Dicamba decarboxylase variant cloneDC.5.034
B3: SEQ ID NO:117: Design variant of SEQ ID NO: 95 (protein)
chain: MAKKPRIDMHSHFFPRISEQEAAKFDANHAPWLQVSAKGDTGSIMMGKNNFRPVYQALWDPAFRIEEMDAQGVDVQVTCATPVMFGYTWEANKAAQWAERMNDFALEFAAHNPQRIKVLAQVPLQDLDLACKEASRAVAAGHLGIQIGNHLGDKDLDDATLEAFLTHCANEDIPILVHPWDMMGGQRMKKWMLPVLVAAPAEVQLAILSLILSGAFERIPKSLKICFAGGGGSFAFLLGIVDLAWRHRDIVREDCPRPPSEYVDRFFVDSLVFNPGALELLVSVMGEDRVMLGSDYPFPTGEQKIGGLVLSSNLGESAKDKIISGNASKFFNINV
modifications: Dicamba decarboxylase variant clone DC.5.008
B4: SEQ ID NO:120: Design variant of SEQ ID NO: 100 (protein)
chain: MAIIDCHGHYTTTPKGVETYRNAQKAAVAKDPSFKYEKGQVVVSDDEIRESIENNQLKMQRERGTDLTIFSPRSTAGGHHIGNEYTSQFWTEHQNDLIRRVCDLFPKNFAPVAQLPQSPGVDPAKSVPEIVRTVEQMGFIGINLNPDPSGGYWKDTSLADRAFYPIYEKMVEYDIPAMIHPRNACNDCFHTTGSHALGADTTGFQQLIMSDVFKDFPSLKIIIPHGGGAVPYHWGRFRGLMQDQGYAPLEESALKNIYFDTCVYHQRGIDLLLDIVPTQNILFASEMIGAVRGIDAETGHNFDDTKRYIDNNTALNAEEKAMIFEGNARRVFSRLKTD
modifications: Dicamba decarboxylase variant clone DC.12.002
B5: SEQ ID NO:122: Design variant of SEQ ID NO: 100 (protein)
chain: B4 chain with T19D, Y36G, E286D, A296P
modifications: Dicamba decarboxylase variant clone DC.12.103
B6: SEQ ID NO:121: Design variant of SEQ ID NO: 100 (protein)
chain: MAIIDCHGHYTTTPKGVEDYRNAQKAAVAKDPSFKGEKGQVVVSDDEIRESIENNQLKMQRERGTDLTIFSPRWDAGGHHIGNEYTSQFWTEHQNDLIRRVCDLFPKNFAPVAQLPQSPGVDPAKSVPEIVRTVEQMGFIGINLNPDPSGGYWKDTSLADRAFYPIYEKMVEYDIPAMIHPRLACNACFHTGLSVGLGADTTGFQQLIMSDVFKDFPSLKIIIPHGGGAVPYHWGRFRGLMQDQGYAPLEESALKNIYFDTCVYHQRGIDLLLDIVPTQNILFASEMIGAVRGIDPETGHNFDDTKRYIDNNTALNAEEKAMIFEGNARRVFSRLKTD
modifications: Dicamba decarboxylase variant clone DC.12.014
B7: L240D: point mutation L240D of SEQ ID NO:109 (protein)
chain: MAQGKVALEEHFAIPETLQDSAGFVPGDYWKELQHRLLDIQDTRLKLMDAHGIETMILSLNAPAVQAIPDRRKAIEIARRANDVLAEECAKRPDRFLAFAALPLQDPDAATEELQRCVNDLGFVGALVNGFSQEGDGQTPLYYDLPQYRPFWGEVEKLDVPFYLHPRNPLPQDSRIYDGHPWLLGPTWAFAQETAVHALRLMASGLFDEHPRLNIILGHMGEGLPYMMWRIDHRVAWVKDPPRYPAKRRFMDYFNENFHITTSGNFRTQTLIDAILEIGADRILFSTDWPFENIDHASDWFNATSIAEADRVKIGRTNARRLFKLDGA
modifications: Dicamba decarboxylase variant clone DC.4.032

One data set can be described thus: 14C assay with purified protein (14CO2 captured on Ca(OH)2 filter paper). It counts as biochemical. Particulars: [14C]-carboxyl-labeled dicamba.
With B1, the CO2 product entry was “not detected”.
Consider B2, for which the CO2 product entry is “not detected”.
As for B3, the CO2 product entry is “not detected”.
Turning to B4, the CO2 product result is “not detected”.
Take B5: the CO2 product entry is listed as “not detected”.
Turning to B6, the CO2 product entry is recorded as “not detected”.

A short description of the next data set: Detection of 2,5-DCA product by toluene capture or head-space GC/MS. The data set is classed as biochemical. As to conditions: purified protein, toluene capturing. The method, then:
Alternatively, dicamba decarboxylase activity can be monitored by measuring decarboxylation products other than CO2 using product detection methods. The decarboxylation product of dicamba, 2,5-dichloro anisole or 2,5-DCA (FIG. 1C), is a volatile compound with a flash point of 21° C. To capture this volatile compound for detection, 140 ul of toluene solution is added on top of 1 ml reaction mixture to form a trapping layer in a 1.5 ml eppendorf tube. […] The reaction is kept still at room temperature overnight before being vortex mixed and centrifuged at 14,000 rpm for 15 minutes. The top toluene phase is carefully removed using a micropipette and transferred into a 12×32 mm polypropylene vial (Vial 11 mm) from MicroLiter Analytical Supplies, Inc. (catalog number 11-5300-100). The vial is sealed with Crimp seal (11 mm with FEP/Nat Rubber) from MicroLiter Analytical Supplies, Inc. (catalog number 11-0020A) using a E-Z Crimper™ 11 mm from Wheaton Inc. 1 ul of the toluene mixture is taken from the sealed vials and injected in splitless mode into a GC/MS system for sample analysis (Agilent GC/MS system with a 6890A GC, a 5973N MSD and a CTC CombiPAL auto-sampler or with a 7890A GC, a 5975C MSD and an Agilent GC Sampler 80 auto-sampler). The GC parameters are: Agilent DB-5MS column (30 m length, 0.25 mm diameter, 0.25 um film) or equivalent; The GC inlet temperature, 250° C.; Carry gas, helium in constant flow mode (1.2 mL/min); The GC oven temperature program, initial temperature at 70° C. for 1 min, ramping to 200° C. at 15° C./min, and then ramping to 250° C. at 30° C./min. MS data acquisition is done in SIM (selected ion monitoring) mode, monitoring the positive ion at M/Z 176 for the molecular ion of […]. The solvent delay for MS acquisition is set at 4 min. Another method for detection of 2,5-DCA is a head-space GC/MS method. Briefly, reaction mixtures in 500 ul reaction volume are prepared in 1.5 ml×32 mm glass vials (Microliter Analytical Supplies, Cat#11-1200) for head space analysis. Glass vials are sealed with magnetic cap from MicroLiter Analytical Supplies, Inc. (catalog number 11-0030AT) using a E-Z Crimper™ 11 mm from Wheaton Industries Inc. The reaction is carried out at room temperature for various amount of time and stopped by heating at 95° C. for 5 min. The reaction vial is transferred to a agitator for incubation at 80° C. for 5 min at 500 rpm. With a syringe preheated at 80° C., 1000 uL of head space is injected with sample fill speed at 100 uL/sec. GC/MS parameters for headspace analysis are the same as for liquid sample analysis.
B1: the “2,5-DCA product” value is reported as “detected”.
In the case of B2, the “2,5-DCA product” value is “detected”.
B3: the “2,5-DCA product” value is “detected”.
For B4, the “2,5-DCA product” value is given as “detected”.
For B5, the “2,5-DCA product” value is “detected”.
Consider B6, for which the “2,5-DCA product” value is given as “detected”.

A short description of the next data set: Detection of 4-chloro-3-methoxy phenol product by LC-MS/MS. The data set is classed as biochemical. As to conditions: purified protein. The method, then:
The decarboxylated and chloro hydrolyzed product, 4-chloro-3-methoxy phenol (FIG. 1D), is measured using a LC-MS/MS analytical procedure. […] 10 ul is removed from the reaction mixture and mixed with 90 ul pre-chilled methanol followed by centrifugation at 14,000 rpm for 15 min at 4° C. 10 ul of the supernatant is then transferred into 170 ul ddH2O to achieve 5% methanol solution for injection. 50 ul of the prepared sample is injected into a 4000 Q Trap LC-MS/MS system for sample analysis. LC-MS/MS parameters are: Mobile Phase A, 2 mM ammonium acetate in water; Mobile Phase B, 2 mM ammonium acetate in methanol; Column, Aquasil, 100×2.1 mm, 3 μm, C18 column; Flow Rate, 0.6 ml/min. The MS/MS fragment 157/142 which is common to 4-chloro-3-methoxy phenol, 2-chloro-5-methoxy phenol, and 3-chloro-5-methoxy phenol is monitored at a retention time of 2.88 min.
As to B1, the 4-chloro-3-methoxy phenol product result is given as “not detected”.
Regarding B2, the 4-chloro-3-methoxy phenol product entry is given as “not detected”.
Still for that read-out and setting: the entry for B3 is “not detected”.
Regarding B4, the 4-chloro-3-methoxy phenol product entry is “not detected”.
B5: the 4-chloro-3-methoxy phenol product entry is given as “not detected”.
Turning to B6, the 4-chloro-3-methoxy phenol product entry was “not detected”.

The next data set in a line: Detection of 2,5-DCP product by GC/MS. The data set is classed as biochemical. As to conditions: purified protein. The method, then:
The decarboxylated and demethylated product of dicamba, 2,5-dichloro phenol or 2,5-DCP (FIG. 1E) is measured using a GC/MS analytical procedure with either liquid injection after liquid/liquid extraction using toluene as the extraction solvent or gas injection using head space method. The head space sample analysis is carried out on an Agilent GC/MS system with a 6890A GC, a 5973N MSD and a CTC CombiPAL auto-sampler or with a 7890A GC, a 5975C MSD and an Agilent GC Sampler 80 auto-sampler with Phenomenex ZB-MultiResidue-1 column (30 m length, 0.25 mm diameter, 0.25 um film) or equivalent. GC/MS parameters are: GC inlet temperature, 200° C.; Carry gas, helium in constant flow mode (1.2 mL/min); Oven temperature program, 70° C. for 1 min and then ramp to 275° C. at 40° C./min. […] The reaction vial is transferred to a agitator for incubation at 90° C. for 4 min at 500 rpm. With a syringe preheated at 110° C., 1000 uL of head space is injected with sample fill speed at 100 uL/sec. A 2-mm diameter liner is used in sample inlet. The MS data acquisition is done in SIM (selected ion monitoring) mode. The positive ion at M/Z 162 for the molecular ion of 2,-5-DCP is monitored at retention time of 4.06 min. Solvent delay for MS acquisition is set at 3 min. GC/MS parameters for liquid sample analysis are the same as those for head space analysis, except that the volume of liquid injection is 1 uL.
With B1, the “2,5-DCP product” value was “not detected”.
Take B2: the “2,5-DCP product” value was “not detected”.
Turning to B3, the “2,5-DCP product” value was “not detected”.
For the molecule B4, the “2,5-DCP product” value was “not detected”.
Same read-out and setting: the entry for B5 is “not detected”; for B6 it is “not detected”.

A short description of another data set: Dicamba decarboxylation activity of computationally designed protein variants. Particulars: native protein or designed variant versus parent.
For the molecule B1, the “Dicamba Decarboxylase Activity” value was “have dicamba decarboxylase activity”.
Still for that read-out and setting: for B2 the value was “have dicamba decarboxylase activity”.
Consider B3, for which the “Dicamba Decarboxylase Activity” value is given as “have dicamba decarboxylase activity”.
On the same count and under the same terms, for B4 the value was “have dicamba decarboxylase activity”.
As to B5, the “Dicamba Decarboxylase Activity” value is listed as “have dicamba decarboxylase activity”.
On the same count and under the same terms, for B6 the value was “have dicamba decarboxylase activity”.

A short description of another data set: Saturation mutagenesis of SEQ ID NO:109, dicamba decarboxylation activity of point mutants. As to conditions: dicamba decarboxylation activity of point mutants of SEQ ID NO: 109 (NNK saturation mutagenesis), relative to the unchanged template.
As for B7, the “Average Activity (Fold of SEQ ID NO: 109)” value is 2.2 Fold of SEQ ID NO: 109.
